From patent publication US20210147563A1 (GENEUIN TECH, published 2021)

T1: DR4 expressed on the cell surface of cancer cells (HeLa, HCT-116) (human) (UniProt O00220)
T1 sequence (looked up): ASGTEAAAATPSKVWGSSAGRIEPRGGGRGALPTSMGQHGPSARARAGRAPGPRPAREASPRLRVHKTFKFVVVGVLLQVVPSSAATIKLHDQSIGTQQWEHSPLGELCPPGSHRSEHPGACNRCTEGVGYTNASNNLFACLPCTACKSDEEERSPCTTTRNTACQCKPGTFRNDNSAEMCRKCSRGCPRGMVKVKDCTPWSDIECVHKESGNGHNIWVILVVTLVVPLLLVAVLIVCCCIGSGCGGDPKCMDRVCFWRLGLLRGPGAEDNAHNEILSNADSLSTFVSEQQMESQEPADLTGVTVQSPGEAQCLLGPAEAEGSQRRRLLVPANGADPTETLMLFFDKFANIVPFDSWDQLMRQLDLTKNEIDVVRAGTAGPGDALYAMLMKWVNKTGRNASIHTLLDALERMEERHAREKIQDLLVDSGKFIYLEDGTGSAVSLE

T2: DR4 expressed on the cell surface of cancer cells (HeLa, HCT-116) (human, UniProt O00220 24-468)
T2 construct: whole, on cells; also called death receptor 4; DR4 trimer
T2 sequence (looked up): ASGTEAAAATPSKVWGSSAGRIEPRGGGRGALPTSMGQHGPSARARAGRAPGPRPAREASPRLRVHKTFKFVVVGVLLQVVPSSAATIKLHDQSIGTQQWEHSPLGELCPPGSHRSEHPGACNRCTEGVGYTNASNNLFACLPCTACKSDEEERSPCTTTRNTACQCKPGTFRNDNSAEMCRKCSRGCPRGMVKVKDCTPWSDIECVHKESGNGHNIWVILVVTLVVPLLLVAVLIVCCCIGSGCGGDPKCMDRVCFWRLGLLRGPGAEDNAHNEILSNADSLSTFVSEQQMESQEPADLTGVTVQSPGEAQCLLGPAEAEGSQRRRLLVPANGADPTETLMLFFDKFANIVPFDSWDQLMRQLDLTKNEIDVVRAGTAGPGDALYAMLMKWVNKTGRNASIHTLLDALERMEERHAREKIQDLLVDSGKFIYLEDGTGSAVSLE


Assays:
[1] = molecular target: T1, DR4 expressed on the cell surface of cancer cells (HeLa, HCT-116) (human); test: cell-based or functional assay
[2] = molecular target: T2, DR4 expressed on the cell surface of …; test: inferred from apoptosis (MTT) assay on DR4-expressing HeLa and HCT-116 cells against DR4-negative HEK293 cells; no direct binding assay
Procedure: To this end, apoptosis-inducing effects of secretory humanized DR4 scFv antibody recombinant protein were analyzed using HeLa cells, a cervical cancer cell line expressing DR4 on the cell surface, and HCT-116 cells, a colon cancer cell line. […] Each of these three cells was inoculated in a culture dish and cultured overnight, and then the secretory humanized DR4 scFv antibody recombinant protein was added to the culture medium, and the degree of death of the cells during culturing was determined by MTT method (Cyto X™ Cell viability assay kit, LPS solution, Korea).

Binder | cytotoxicity of CAR expressing lymphocytes on HeLa cells against HEK293 cells (CellTox Green fluorescence, effector:target 10:1, 3 days) [1] | binding result [2]
humanized DR4 scFv chimeric antigen receptor (CAR) (protein, part only; not given: hinge, transmembrane and signaling domains, not shown: a dimerising Fc or GST; small tags and cut ends) chain, part: EVQLVESGGGLVQPGGSLRLSCSASGFTFSSYSMQWVRQAPGKGLEYVAGIRSDGRYTNYGAAVKGRATISRDNSKNTVYLQMNSLRAEDTAVYYCAKGAYGYCGSTCAPYLGQIDAWGQGTLVTVSSGSTSGSGKPGSGEGSTKGSYELTQPPSVSVSPGQTVRITCSGGRYTYGWFQQKPGQAPVTVIYGNDKRPSNIPSRFSGSTSGSTVTLTISGVQAEDEADYYCGGADFSAGLFGGGTKLTVL | 2 to 3 times | –
secretory humanized DR4 scFv antibody recombinant protein (scFv, Secreted from HEK293 cells transfected with pCMVFL-srkDR4 and purified through the His tag; no cleavage site is stated; also called secretory (soluble form) humanized DR4 scFv antibody fragment recombinant protein; humanized anti-DR4 scFv; not shown: Flag tag; IgG3 hinge; isoleucine zipper (ILZ) peptide; His6 tag) scFv: EVQLVESGGGLVQPGGSLRLSCSASGFTFSSYSMQWVRQAPGKGLEYVAGIRSDGRYTNYGAAVKGRATISRDNSKNTVYLQMNSLRAEDTAVYYCAKGAYGYCGSTCAPYLGQIDAWGQGTLVTVSSGSTSGSGKPGSGEGSTKGSYELTQPPSVSVSPGQTVRITCSGGRYTYGWFQQKPGQAPVTVIYGNDKRPSNIPSRFSGSTSGSTVTLTISGVQAEDEADYYCGGADFSAGLFGGGTKLTVL | – | binds
